The text below walks through data of publication PMC5737856 (Nucleic Acids Research, 2017).

To fix the notation:
T1: catalytic SNF2/HELIC region of PICH (human)
T1 sequence (Q2NKX8 whole entry, looked up): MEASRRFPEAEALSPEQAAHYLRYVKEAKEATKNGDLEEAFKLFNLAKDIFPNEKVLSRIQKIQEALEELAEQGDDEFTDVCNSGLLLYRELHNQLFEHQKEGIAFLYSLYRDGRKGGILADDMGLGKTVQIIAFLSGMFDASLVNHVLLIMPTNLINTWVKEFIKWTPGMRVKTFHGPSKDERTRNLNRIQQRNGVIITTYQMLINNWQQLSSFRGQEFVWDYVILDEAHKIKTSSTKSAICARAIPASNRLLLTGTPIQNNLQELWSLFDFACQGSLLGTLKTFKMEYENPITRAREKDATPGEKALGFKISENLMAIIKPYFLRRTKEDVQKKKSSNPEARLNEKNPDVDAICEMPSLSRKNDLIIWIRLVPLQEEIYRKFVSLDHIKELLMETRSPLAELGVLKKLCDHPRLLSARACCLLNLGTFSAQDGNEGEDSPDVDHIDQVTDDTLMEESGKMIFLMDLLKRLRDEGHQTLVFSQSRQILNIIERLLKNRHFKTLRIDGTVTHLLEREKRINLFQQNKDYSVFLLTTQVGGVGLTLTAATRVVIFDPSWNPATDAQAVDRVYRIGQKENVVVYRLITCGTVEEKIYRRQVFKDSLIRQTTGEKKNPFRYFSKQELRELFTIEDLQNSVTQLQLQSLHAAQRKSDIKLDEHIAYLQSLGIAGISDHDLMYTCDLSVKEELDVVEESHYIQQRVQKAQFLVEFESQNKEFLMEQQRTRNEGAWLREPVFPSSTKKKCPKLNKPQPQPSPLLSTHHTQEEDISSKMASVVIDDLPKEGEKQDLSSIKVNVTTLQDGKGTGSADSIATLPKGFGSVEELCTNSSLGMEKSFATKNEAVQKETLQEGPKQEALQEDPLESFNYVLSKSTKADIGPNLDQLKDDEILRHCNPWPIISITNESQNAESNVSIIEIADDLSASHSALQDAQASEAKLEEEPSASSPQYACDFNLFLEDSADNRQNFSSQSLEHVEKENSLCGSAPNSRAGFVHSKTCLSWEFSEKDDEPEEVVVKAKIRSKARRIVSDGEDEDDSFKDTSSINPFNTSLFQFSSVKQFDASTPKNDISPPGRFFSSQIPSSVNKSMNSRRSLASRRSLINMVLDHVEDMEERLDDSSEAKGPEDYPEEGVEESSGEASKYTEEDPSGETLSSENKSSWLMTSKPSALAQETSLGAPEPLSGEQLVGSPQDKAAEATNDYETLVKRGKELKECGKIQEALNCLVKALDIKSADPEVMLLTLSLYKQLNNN

T2: PICH, full length (recombinant) (human, UniProt Q2NKX8 1-1250)
T2 sequence (looked up): T1 sequence (Q2NKX8 whole entry, looked up)

B1: N-terminal TPR motif of PICH (domain or fragment, human)
chain: AEALSPEQAAHYLRYVKEAKEATKNGDLEEAFKLFNLAKDIFPNEKVLSRIQKIQEA
B2: BEN domain 3 of BEND3 (domain or fragment)
chain: VPGADCLLSKEQLRSIYESSLSIGNFASRLLVHLFPELFTHENLRKQYNCSGSLGKKQLDPSRIKLIRHYVQLLYPRAKNDRVWTLEFVGKLDERCRRRDTEQ
B3: BEN domain 1 of BEND3 (domain or fragment, human)
chain: MVAKFQPPPEYQLTAAELKQIVDQSLSGGDLACRLLVQLFPELFSDVDFSRGCSACGFAAKRKLESLHLQLIRNYVEVYYPSVKDTAVWQAECLPQLNDFFSRFWAQREMED
B4: isolated N-terminal region of BEND3 (residues 1-534) (domain or fragment, human, UniProt Q5T5X7 1-534, looked up)
chain: MNSTEFTEDVEEVLKSITVKVETEAEDAALDCSVNSRTSEKHSVDSVLTALQDSSKRKQLVSDGLLDSVPGVKRRRLIPEALLAGMRNRENSSPCQGNGEQAGRGRSLGNVWPGEEEPCNDATTPSYKKPLYGISHKIMEKKNPPSGDLLNVYELFEKANASNSPSSLRLLNEPQKRDCGSTGAGTDNDPNIYFLIQKMFYMLNTLTSNMSQLHSKVDLLSLEVSRIKKQVSPTEMVAKFQPPPEYQLTAAELKQIVDQSLSGGDLACRLLVQLFPELFSDVDFSRGCSACGFAAKRKLESLHLQLIRNYVEVYYPSVKDTAVWQAECLPQLNDFFSRFWAQREMEDSQPSGQVASFFEAEQVDPGHFLDNKDQEEALSLDRSSTIASDHVVDTQDLTEFLDEASSPGEFAVFLLHRLFPELFDHRKLGEQYSCYGDGGKQELDPQRLQIIRNYTEIYFPDMQEEEAWLQQCAQRINDELEGLGLDAGSEGDPPRDDCYDSSSLPDDISVVKVEDSFEGERPGRRSKKIWLVPI
B5: BEND3, full length (from HEK293 cells) (natural protein, human, UniProt Q5T5X7 1-828, looked up)
chain: MNSTEFTEDVEEVLKSITVKVETEAEDAALDCSVNSRTSEKHSVDSVLTALQDSSKRKQLVSDGLLDSVPGVKRRRLIPEALLAGMRNRENSSPCQGNGEQAGRGRSLGNVWPGEEEPCNDATTPSYKKPLYGISHKIMEKKNPPSGDLLNVYELFEKANASNSPSSLRLLNEPQKRDCGSTGAGTDNDPNIYFLIQKMFYMLNTLTSNMSQLHSKVDLLSLEVSRIKKQVSPTEMVAKFQPPPEYQLTAAELKQIVDQSLSGGDLACRLLVQLFPELFSDVDFSRGCSACGFAAKRKLESLHLQLIRNYVEVYYPSVKDTAVWQAECLPQLNDFFSRFWAQREMEDSQPSGQVASFFEAEQVDPGHFLDNKDQEEALSLDRSSTIASDHVVDTQDLTEFLDEASSPGEFAVFLLHRLFPELFDHRKLGEQYSCYGDGGKQELDPQRLQIIRNYTEIYFPDMQEEEAWLQQCAQRINDELEGLGLDAGSEGDPPRDDCYDSSSLPDDISVVKVEDSFEGERPGRRSKKIWLVPIDFDKLEIPQPDFEVPGADCLLSKEQLRSIYESSLSIGNFASRLLVHLFPELFTHENLRKQYNCSGSLGKKQLDPSRIKLIRHYVQLLYPRAKNDRVWTLEFVGKLDERCRRRDTEQRRSYQQQRKVHVPGPECRDLTSYAINPERFREEFEGPPLPPERSSKDFCKIPLDELVVPSPDFPVPSPYLLSDKEVREIVQQSLSVGNFAARLLVRLFPELFTAENLRLQYNHSGACNKKQLDPTRLRLIRHYVEAVYPVEKMEEVWHYECIPSIDERCRRPNRKKCDILKKAKKVEK

The target of the data set “BEN domain 1 of BEND3” is B3. Kind of data set: MST.
The target in data set [1] is T1, catalytic SNF2/HELIC region of PICH (human). Put plainly: MST.
Data set [2] addresses T2, PICH, full length (recombinant). Kind of data set: MST.
The data set “SEC + native gel or EMSA” deals with the molecule itself. Kind of data set: SEC + native gel or EMSA. On the technique in general: A gel shift assay detects complexes by their altered migration in electrophoresis.
The target of data set [3] is T2, PICH, full length (recombinant). Put plainly: SPR.

A word on the Kd: it is the concentration at which binding is half-saturated. The molecule B1 displayed a Kd with BEN domain 1 of BEND3 of 1200 ± 250 nM.
As for B2, in data set [1], the Kd came to 1500 nM.
For the molecule B3, the dissociation constant Kd in data set [2] worked out at 200 ± 250 nM.
As for B4, in the data set “SEC + native gel or EMSA”, the binding result is “binds”.
By stoichiometry N is commonly meant the number of molecules, sites or subunits per partner or assembly. Regarding B5, in data set [3], the Kd was 700 ± 300 nM. Also, in “SEC + native gel or EMSA”, the “stoichiometry N” value was 8.
